# Results: patent publication US20220010008A1
# Values joined by “and” are separate entries in the source; they are usually repeats but may differ in a detail not shown here. Identical values can stand only once.
# B1: 147D7H2 mouse-human chimeric antibody (antibody, human IgG4, V domains shown)
# VH: EVQLQQSGAELVKPGASVKLSCTASGFNIKDYFIHWVKQRTEQGLEWIGRIDTEDGETKYAPKFQGKATITIDTSSNTAYLYFSSLTSEDTAMYYCARYGNYVAMDYWGQGTSVTVSS
# VL: QIVLTQSPALMSASPGEKVTMTCSASSSVSYMFWYQQKPSSSPKPWIYLTSKLASGVPARFSGSGSGTSYSLTISSVEAEDAATYYCQQWNSNPYTFGGGTKLEIK
# Biological target: recombinant human IL-5 protein (human) (UniProt P05113)
# Assay: cell-based or functional assay
Binder,"RLU, CTLL-2 proliferation with IL-5, Ab 0.000170667 nM","RLU, CTLL-2 proliferation with IL-5, Ab 0.000853333 nM","RLU, CTLL-2 proliferation with IL-5, Ab 0.004266667 nM","RLU, CTLL-2 proliferation with IL-5, Ab 0.02133333 nM","RLU, CTLL-2 proliferation with IL-5, Ab 0.1066667 nM","RLU, CTLL-2 proliferation with IL-5, Ab 0.5333334 nM","RLU, CTLL-2 proliferation with IL-5, Ab 2.666667 nM","RLU, CTLL-2 proliferation with IL-5, Ab 13.33333 nM","RLU, CTLL-2 proliferation with IL-5, Ab 66.66666 nM","RLU, CTLL-2 proliferation with IL-5, Ab 3.41333E-05 nM"
B1,50700 RLU and 51700 RLU,50800 RLU and 50700 RLU,41400 RLU and 48200 RLU,33800 RLU and 36400 RLU,12700 RLU and 13200 RLU,9570 RLU and 10400 RLU,8620 RLU and 8160 RLU,7310 RLU and 6690 RLU,5230 RLU and 5240 RLU,56100 RLU and 52200 RLU

# Same assay, conditions: not given
Binder,"RLU, TF-1 proliferation with IL-5, Ab 0.00001 nM","RLU, TF-1 proliferation with IL-5, Ab 0.00003 nM","RLU, TF-1 proliferation with IL-5, Ab 0.00017 nM","RLU, TF-1 proliferation with IL-5, Ab 0.00085 nM","RLU, TF-1 proliferation with IL-5, Ab 0.00427 nM","RLU, TF-1 proliferation with IL-5, Ab 0.02133 nM","RLU, TF-1 proliferation with IL-5, Ab 0.10667 nM","RLU, TF-1 proliferation with IL-5, Ab 0.53333 nM","RLU, TF-1 proliferation with IL-5, Ab 2.66667 nM","RLU, TF-1 proliferation with IL-5, Ab 13.33333 nM"
B1,99500 RLU and 101000 RLU,100000 RLU and 95000 RLU,96400 RLU and 88800 RLU,89200 RLU and 82900 RLU,56700 RLU and 54800 RLU,45300 RLU and 43900 RLU,39000 RLU and 38700 RLU,36400 RLU and 40100 RLU,34800 RLU and 41200 RLU,35700 RLU and 39000 RLU

# Biological target: recombinant human IL-5 protein (human) (UniProt P05113)
# Assay: ELISA, biotin-human IL-5 on streptavidin plate, Ab 0.0002 nM
row,Binder,OD450 nm
1,B1,0.103 OD450 nm and 0.101 OD450 nm

# Biological target: recombinant human IL-5 protein (human) (UniProt P05113)
# Assay: ELISA, biotin-human IL-5 on streptavidin plate, Ab 0.0009 nM
row,Binder,OD450 nm
1,B1,0.102 OD450 nm and 0.104 OD450 nm

# Biological target: recombinant human IL-5 protein (human) (UniProt P05113)
# Assay: ELISA, biotin-human IL-5 on streptavidin plate, Ab 0.0043 nM
row,Binder,OD450 nm
1,B1,0.172 OD450 nm and 0.156 OD450 nm

# Biological target: recombinant human IL-5 protein (human) (UniProt P05113)
# Assay: ELISA, biotin-human IL-5 on streptavidin plate, Ab 0.0213 nM
row,Binder,OD450 nm
1,B1,0.406 OD450 nm and 0.385 OD450 nm

# Biological target: recombinant human IL-5 protein (human) (UniProt P05113)
# Assay: ELISA, biotin-human IL-5 on streptavidin plate, Ab 0.1067 nM
row,Binder,OD450 nm
1,B1,1.25 OD450 nm and 1.3 OD450 nm

# Biological target: recombinant human IL-5 protein (human) (UniProt P05113)
# Assay: ELISA, biotin-human IL-5 on streptavidin plate, Ab 0.5333 nM
row,Binder,OD450 nm
1,B1,2.74 OD450 nm and 2.91 OD450 nm

# Biological target: recombinant human IL-5 protein (human) (UniProt P05113)
# Assay: ELISA, biotin-human IL-5 on streptavidin plate, Ab 2.6667 nM
row,Binder,OD450 nm
1,B1,3.22 OD450 nm and 3.35 OD450 nm

# Biological target: recombinant human IL-5 protein (human) (UniProt P05113)
# Assay: ELISA, biotin-human IL-5 on streptavidin plate, Ab 13.3333 nM
row,Binder,OD450 nm
1,B1,3.44 OD450 nm and 3.72 OD450 nm

# Biological target: recombinant human IL-5 protein (human) (UniProt P05113)
# Assay: FACS blocking: biotin-IL-5 bound to CHOK1 IL-5Ra/CSF2RB cells, Ab 0.0004 nM
row,Binder,Fluorescence intensity
1,B1,94 MFI

# Biological target: recombinant human IL-5 protein (human) (UniProt P05113)
# Assay: FACS blocking: biotin-IL-5 bound to CHOK1 IL-5Ra/CSF2RB cells, Ab 0.0021 nM
row,Binder,Fluorescence intensity
1,B1,88 MFI

# Biological target: recombinant human IL-5 protein (human) (UniProt P05113)
# Assay: FACS blocking: biotin-IL-5 bound to CHOK1 IL-5Ra/CSF2RB cells, Ab 0.0107 nM
row,Binder,Fluorescence intensity
1,B1,86 MFI

# Biological target: recombinant human IL-5 protein (human) (UniProt P05113)
# Assay: FACS blocking: biotin-IL-5 bound to CHOK1 IL-5Ra/CSF2RB cells, Ab 0.0533 nM
row,Binder,Fluorescence intensity
1,B1,94 MFI

# Biological target: recombinant human IL-5 protein (human) (UniProt P05113)
# Assay: FACS blocking: biotin-IL-5 bound to CHOK1 IL-5Ra/CSF2RB cells, Ab 0.2667 nM
row,Binder,Fluorescence intensity
1,B1,76 MFI

# Biological target: recombinant human IL-5 protein (human) (UniProt P05113)
# Assay: FACS blocking: biotin-IL-5 bound to CHOK1 IL-5Ra/CSF2RB cells, Ab 1.3333 nM
row,Binder,Fluorescence intensity
1,B1,52 MFI

# Biological target: recombinant human IL-5 protein (human) (UniProt P05113)
# Assay: FACS blocking: biotin-IL-5 bound to CHOK1 IL-5Ra/CSF2RB cells, Ab 6.6667 nM
row,Binder,Fluorescence intensity
1,B1,36 MFI

# Biological target: recombinant human IL-5 protein (human) (UniProt P05113)
# Assay: FACS blocking: biotin-IL-5 bound to CHOK1 IL-5Ra/CSF2RB cells, Ab 33.3333 nM
row,Binder,Fluorescence intensity
1,B1,31 MFI

# Biological target: recombinant human IL-5 protein (human) (UniProt P05113)
# Assay: SPR, human IL-5 immobilized on CM5 chip, chimeric antibody as analyte, 1:1 global fit
Binder,Kd,koff,kon
B1,< 0.0637 nM,< 1e-05 s⁻¹,157000 M⁻¹ s⁻¹
